According to the supplement of paper PMC9116672:
± gives the standard deviation of the averaged measurements or the uncertainty stated by the source.

How the values were obtained:
[1] = duplex melting temperature (HRM, EvaGreen); higher = more stable duplex
Procedure: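 Listed DNA strand annealed 1:1 with its complementary strand (95 °C 5 min, 0.1 °C/s to 20 °C). Melted in 1x NNE buffer (500 mM NaCl, 10 mM Na2HPO4, 1 mM EDTA, pH 7.0) with 1x EvaGreen on a LightCycler96 (37 to 97 °C, 0.1 °C/s). Tm is the peak of -dF/dT at the stated total duplex concentration; 4 replicates are averaged. PS oligos are non-stereospecific (Rp/Sp mixtures).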

[2] = duplex formation free energy ΔG50 (Van't Hoff fit of HRM Tm); higher = less stable duplex; details: temperature for dG: 50 °C, NaCl: 500 mM (unadjusted)
Procedure: (§1)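 Duplex of the listed DNA strand with its complement, in 1x NNE buffer (500 mM NaCl, pH 7.0) with 1x EvaGreen. ΔH and ΔS come from a Van't Hoff linear fit of 1/Tm against ln(CT/4) over 1-20 uM, using HRM Tm values.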

[3] = duplex formation enthalpy ΔH (Van't Hoff fit of HRM Tm); higher = less exothermic duplex formation; details: temperature for dG: 50 °C, NaCl: 500 mM (unadjusted)
Procedure: as §1

[4] = duplex formation entropy ΔS (Van't Hoff fit of HRM Tm); higher = smaller entropy loss on duplex formation; details: temperature for dG: 50 °C, NaCl: 500 mM (unadjusted)
Procedure: as §1

[5] = duplex concentration 1 µM, backbone: PS-PO (listed strand fully phosphorothioate, complement phosphodiester)
[6] = duplex concentration 1 µM, backbone: PS-PS (both strands fully phosphorothioate)
[7] = duplex concentration 2.5 µM, backbone: PO-PO (both strands phosphodiester DNA)
[8] = duplex concentration 2.5 µM, backbone: PS-PO (listed strand fully phosphorothioate, complement phosphodiester)
[9] = duplex concentration 2.5 µM, backbone: PS-PS (both strands fully phosphorothioate)
[10] = duplex concentration 5 µM, backbone: PO-PO (both strands phosphodiester DNA)
[11] = duplex concentration 5 µM, backbone: PS-PO (listed strand fully phosphorothioate, complement phosphodiester)
[12] = duplex concentration 5 µM, backbone: PS-PS (both strands fully phosphorothioate)
[13] = duplex concentration 7.5 µM, backbone: PO-PO (both strands phosphodiester DNA)
[14] = duplex concentration 7.5 µM, backbone: PS-PO (listed strand fully phosphorothioate, complement phosphodiester)
[15] = duplex concentration 7.5 µM, backbone: PS-PS (both strands fully phosphorothioate)
[16] = duplex concentration 10 µM, backbone: PO-PO (both strands phosphodiester DNA)
[17] = duplex concentration 10 µM, backbone: PS-PO (listed strand fully phosphorothioate, complement phosphodiester)
[18] = duplex concentration 10 µM, backbone: PS-PS (both strands fully phosphorothioate)
[19] = duplex concentration 15 µM, backbone: PO-PO (both strands phosphodiester DNA)
[20] = duplex concentration 15 µM, backbone: PS-PO (listed strand fully phosphorothioate, complement phosphodiester)
[21] = duplex concentration 15 µM, backbone: PS-PS (both strands fully phosphorothioate)
[22] = duplex concentration 20 µM, backbone: PO-PO (both strands phosphodiester DNA)
[23] = duplex concentration 20 µM, backbone: PS-PO (listed strand fully phosphorothioate, complement phosphodiester)
[24] = duplex concentration 20 µM, backbone: PS-PS (both strands fully phosphorothioate)
[25] = backbone: PO-PO (both strands phosphodiester DNA)
[26] = backbone: PS-PO (listed strand fully phosphorothioate, complement phosphodiester)
[27] = backbone: PS-PS (both strands fully phosphorothioate)
[28] = duplex concentration 1 µM, backbone: PO-PO (both strands phosphodiester DNA)

| Sequence | duplex melting temperature [1, 5] | duplex melting temperature [1, 6] | duplex melting temperature [1, 7] | duplex melting temperature [1, 8] | duplex melting temperature [1, 9] | duplex melting temperature [1, 10] | duplex melting temperature [1, 11] | duplex melting temperature [1, 12] | duplex melting temperature [1, 13] | duplex melting temperature [1, 14] | duplex melting temperature [1, 15] | duplex melting temperature [1, 16] | duplex melting temperature [1, 17] | duplex melting temperature [1, 18] | duplex melting temperature [1, 19] | duplex melting temperature [1, 20] | duplex melting temperature [1, 21] | duplex melting temperature [1, 22] | duplex melting temperature [1, 23] | duplex melting temperature [1, 24] | duplex formation free energy ΔG50 [2, 25] | duplex formation free energy ΔG50 [2, 26] | duplex formation free energy ΔG50 [2, 27] | duplex formation enthalpy ΔH [3, 25] | duplex formation enthalpy ΔH [3, 26] | duplex formation enthalpy ΔH [3, 27] | duplex formation entropy ΔS [4, 25] | duplex formation entropy ΔS [4, 26] | duplex formation entropy ΔS [4, 27] | duplex melting temperature [1, 28] |
| --- | --- | --- | --- | --- | --- | --- | --- | --- | --- | --- | --- | --- | --- | --- | --- | --- | --- | --- | --- | --- | --- | --- | --- | --- | --- | --- | --- | --- | --- | --- |
| GCAGGAGCCGCGACCTG | 68.45 ± 0.49 °C | 62.56 ± 0.17 °C | 78.12 ± 0.35 °C | 71.31 ± 0.39 °C | 65.18 ± 0.082 °C | 79.75 ± 0.071 °C | 73.48 ± 0.49 °C | 66.99 ± 0.15 °C | 80.79 ± 0.2 °C | 74.78 ± 0.33 °C | 68.28 ± 0.17 °C | 81.76 ± 0.16 °C | 75.68 ± 0.15 °C | 69.26 ± 0.061 °C | 82.48 ± 0.27 °C | 76.9 ± 0.33 °C | 70.16 ± 0.069 °C | 83.26 ± 0.12 °C | 77.68 ± 0.29 °C | 71.01 ± 0.16 °C | -17.2 ± 0.47 kcal/mol | -13.98 ± 0.13 kcal/mol | -12.81 ± 0.099 kcal/mol | -100 ± 5.4 kcal/mol | -77.6 ± 1.8 kcal/mol | -81.2 ± 1.9 kcal/mol | -257 ± 15 cal/mol/K | -197 ± 5.2 cal/mol/K | -212 ± 5.6 cal/mol/K |  |
| GAACTGCCACTACCAA |  | 48.68 ± 0.086 °C | 64.85 ± 0.39 °C | 58.65 ± 0.087 °C | 52.19 ± 0.14 °C | 67.25 ± 0.085 °C | 60.93 ± 0.068 °C | 54.589 ± 0.051 °C | 68.57 ± 0.17 °C | 62.25 ± 0.15 °C | 55.833 ± 0.044 °C | 69.531 ± 0.05 °C | 63.17 ± 0.12 °C | 56.65 ± 0.09 °C | 71 ± 0.09 °C | 64.25 ± 0.11 °C | 57.7 ± 0.15 °C | 71.922 ± 0.013 °C | 65.26 ± 0.12 °C | 58.53 ± 0.13 °C | -12.27 ± 0.11 kcal/mol | -11.04 ± 0.059 kcal/mol | -9.573 ± 0.046 kcal/mol | -69.8 ± 2 kcal/mol | -70.8 ± 1.6 kcal/mol | -65.1 ± 2.6 kcal/mol | -178 ± 5.8 cal/mol/K | -185 ± 4.7 cal/mol/K | -172 ± 7.9 cal/mol/K | 63.2 °C |
| TTCTACATCCATCTTAATCCCA | 59.7 °C | 49.9 ± 0.91 °C | 69.29 ± 0.65 °C | 60.3 ± 0.71 °C | 52.2 ± 0.78 °C | 70.58 ± 0.52 °C | 61.7 ± 1 °C | 54.2 ± 0.62 °C | 71.5 ± 0.27 °C | 63 ± 0.72 °C | 55.53 ± 0.29 °C | 72.3 ± 0.098 °C | 63.81 ± 0.27 °C | 56.28 ± 0.17 °C | 73.48 ± 0.21 °C | 64.85 ± 0.098 °C | 57.3 ± 0.083 °C | 74.36 ± 0.2 °C | 65.55 ± 0.094 °C | 57.98 ± 0.21 °C | -14.7 ± 0.46 kcal/mol | -12 ± 0.2 kcal/mol | -9.752 ± 0.037 kcal/mol | -99.4 ± 7.2 kcal/mol | -90.6 ± 5.1 kcal/mol | -78.1 ± 2.2 kcal/mol | -262 ± 21 cal/mol/K | -243 ± 15 cal/mol/K | -212 ± 6.8 cal/mol/K |  |
| CTGTAAGGCGATATGTT | 54.19 ± 0.32 °C | 46.56 ± 0.46 °C | 64 ± 0.26 °C | 57.45 ± 0.17 °C | 49.35 ± 0.22 °C | 66.38 ± 0.2 °C | 59.646 ± 0.025 °C | 51.33 ± 0.25 °C | 67.39 ± 0.14 °C | 60.55 ± 0.14 °C | 52.31 ± 0.059 °C | 68.42 ± 0.14 °C | 61.364 ± 0.05 °C | 53.15 ± 0.1 °C | 69.61 ± 0.1 °C | 62.62 ± 0.11 °C | 54.29 ± 0.068 °C | 70.55 ± 0.11 °C | 63.366 ± 0.049 °C | 55.12 ± 0.067 °C | -12.5 ± 0.13 kcal/mol | -10.76 ± 0.077 kcal/mol | -8.999 ± 0.015 kcal/mol | -77.7 ± 2.5 kcal/mol | -72.7 ± 2.5 kcal/mol | -73.8 ± 1.5 kcal/mol | -202 ± 7.4 cal/mol/K | -192 ± 7.4 cal/mol/K | -201 ± 4.6 cal/mol/K | 62.12 ± 0.3 °C |
